This passage reports apparent KD, Site 2, KD, Site 1 and Kd results from paper PMC7144582.

In general, Kd refers to the concentration at which binding is half-saturated.

Experiment [1] has as its target CHIKV nsP3 hypervariable domain (HVD), aa 325-523, with C-terminal Twin-Strep-tag (chikungunya virus (CHIKV) strain 181-25). The experiment can be described thus: NMR titration.
The target of experiment [2] is nsP3 Site 1 (Chikungunya virus), Q8JUX6. The experiment can be described thus: NMR.

As for CD2AP SH3-A domain (domain or fragment), the apparent KD, Site 2 in experiment [1] stood at 137 µM.
With CD2AP SH3-B domain (domain or fragment), in experiment [1], the KD, Site 1 was determined as 4.5 µM and the apparent KD, Site 2 was 75.7 µM.
In the case of CD2AP SH3-C domain (domain or fragment), the apparent KD, Site 2 in experiment [1] is 154 µM.

B1: CD2AP SH3-C, Q9Y5K6 (protein)
chain: KAKEYCRTLFAYEGTNEDELTFKEGEIIHLISKETGEAGWWRGELNGKEGVFPDNFAVQINE
The molecule B1 yielded a Kd in experiment [2] of 51.7 µM.

B2: CD2AP SH3-B, Q9Y5K6 (protein)
chain: TKKRQCKVLFEYIPQNEDELELKVGDIIDINEEVEEGWWSGTLNNKLGLFPSNFVKELEV
B2: in experiment [2], the Kd is 4.5 µM.
